From patent US20110244473A1

Biological target: Death Receptor 5 (human) (UniProt O14763)
Experiment: cell-based or functional assay

Sequence of UniProt O14763 (O14763 other isoform, or with tags, fused parts or gaps limits assumed): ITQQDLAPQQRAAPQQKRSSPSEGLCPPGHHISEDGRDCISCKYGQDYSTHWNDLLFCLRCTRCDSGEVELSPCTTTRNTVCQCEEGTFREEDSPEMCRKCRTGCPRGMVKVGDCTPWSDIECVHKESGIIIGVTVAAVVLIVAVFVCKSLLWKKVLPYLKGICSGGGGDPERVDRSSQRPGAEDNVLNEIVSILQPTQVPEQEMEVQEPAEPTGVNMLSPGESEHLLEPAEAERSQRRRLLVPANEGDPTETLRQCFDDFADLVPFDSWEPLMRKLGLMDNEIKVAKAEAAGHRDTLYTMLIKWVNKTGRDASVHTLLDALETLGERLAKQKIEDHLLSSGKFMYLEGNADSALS

Substance	rate of DR5 endocytosis [fold]	receptor internalizing over 2 hr (fraction of the receptor)
Flag-tagged human recombinant soluble Apo2L/TRAIL cross-linked by anti-FLAG M2 antibody (from UniProt P50591 114-281) (ligand)	2	0.33
human recombinant soluble Apo2L/TRAIL, non-tagged (trimeric) (from UniProt P50591 114-281) (ligand)	2	0.33
